± gives the uncertainty stated by the source.
B1: PMS1 protein homolog 1, residues 572 to 637; numbered along this chain, P54277 (parent)
chain: KKPMSASALFVQDHRPQFLIENPKTSLEDATLQIEELWKTLSEEEKLKYEEKATKDLERYNSQMKR

Variants of: B1
Experiment: abundance fitness (aPCA) (normalised: wild type 0, dead -1); higher = more abundant; growth selection in yeast, the domain comes from the species named
Conditions: Homo sapiens

Q: Which abundance fitness does the source give for KKPMSASALFVQDHRPQFLIENPKTSLEDATLQIEELWKTLSEEEKLKYEEKATKDLERYNTQMKR [S62T] here?
A: The abundance fitness was -0.227 ± 0.093.

Q: For KKPMSASALFVQDHRPQFLIENPKTSLEDATLQIEELWKTLSEEEKLKYEEKATKDLERYNHQMKR [S62H], which abundance fitness is on record?
A: The abundance fitness was 0.021 ± 0.14.

Q: Which abundance fitness does the source give for KKPMSPSALFVQDHRPQFLIENPKTSLEDATLQIEELWKTLSEEEKLKYEEKATKDLERYNSQMKR [A6P] here?
A: The abundance fitness was -0.38 ± 0.21.

Q: With KKPMSCSALFVQDHRPQFLIENPKTSLEDATLQIEELWKTLSEEEKLKYEEKATKDLERYNSQMKR [A6C] as the variant, how does the abundance fitness read?
A: The abundance fitness was -0.281 ± 0.29.

Q: Which abundance fitness does the source give for KKPMSAMALFVQDHRPQFLIENPKTSLEDATLQIEELWKTLSEEEKLKYEEKATKDLERYNSQMKR [S7M] here?
A: The abundance fitness was 0.235 ± 0.25.

Q: Which abundance fitness does the source give for KKPMSASALFVQDHRPQFLIENPKTSLEDATLQIEELWKPLSEEEKLKYEEKATKDLERYNSQMKR [T40P] here?
A: Its abundance fitness is -0.537 ± 0.14.

Q: Which abundance fitness does the source give for KKPMSASALFVQDHRPQFLIENPKTSLEDATLQIEELWKDLSEEEKLKYEEKATKDLERYNSQMKR [T40D] here?
A: Its abundance fitness is -0.101 ± 0.11.

Q: With KKPMSASALFVQDHRPQFLIENPKTSLEDATLQIEELWKTLSEEEKLRYEEKATKDLERYNSQMKR [K48R] as the variant, how does the abundance fitness read?
A: Its abundance fitness is -0.127 ± 0.1.

Q: With KKPMSASALFVQDHRPQFLIENPKTSLEDATLQIEELWKTLSEEEKLTYEEKATKDLERYNSQMKR [K48T] as the variant, how does the abundance fitness read?
A: The abundance fitness was -0.205 ± 0.084.

Q: For KKPMSASALFVQDHRPQFLIENPKTSLEDATLQIEELWKTLSEEEMLKYEEKATKDLERYNSQMKR [K46M], which abundance fitness is on record?
A: Its abundance fitness is -0.508 ± 0.075.

Q: Which abundance fitness does the source give for KKPMSASALFVQDHRPQFLIENPKTSLEDATLQIEELWKTLSEEEALKYEEKATKDLERYNSQMKR [K46A] here?
A: Its abundance fitness is -0.395 ± 0.077.

Q: Which abundance fitness does the source give for KKPMSASALFVQDHRPQFLIENPKTSLEDATLQIEELWKTLSEEEQLKYEEKATKDLERYNSQMKR [K46Q] here?
A: The abundance fitness was -0.106 ± 0.078.

Q: With KKPMSASALFVQDHRPQFLIENPKTSLEDATLQIEELWKTLSEEEKNKYEEKATKDLERYNSQMKR [L47N] as the variant, how does the abundance fitness read?
A: Its abundance fitness is 0.202 ± 0.42.

Q: Which abundance fitness does the source give for KKPMSASALFVQDHRPQFLIENPKTSLEDATLQIEELWKTLSEEEKCKYEEKATKDLERYNSQMKR [L47C] here?
A: Its abundance fitness is -0.149 ± 0.12.

Q: Which abundance fitness does the source give for KKPMSASALFVQDHRPQFLIENPKTSLEDATLQIEELWKTLSEEEKAKYEEKATKDLERYNSQMKR [L47A] here?
A: Its abundance fitness is 0.058 ± 0.1.

Q: For KKPMSASALFVQDHRPQFLIENPKTSLEDATLQIEELWKTLSEEEKLKYEEKATKDLERYRSQMKR [N61R], which abundance fitness is on record?
A: Its abundance fitness is -0.15 ± 0.059.

Q: Which abundance fitness does the source give for KKPMSASALFVQDHRPQFLIENPKTSLEDATLQIEELWKTLSEEEKLKYEEKATKDLERYASQMKR [N61A] here?
A: The abundance fitness was -0.15 ± 0.07.

Q: With KKPMSASALFVQDHRPQFLIENPKTSLEDATLQIEELWKTLSEEEKLKYEEKATKDLERYDSQMKR [N61D] as the variant, how does the abundance fitness read?
A: Its abundance fitness is -0.136 ± 0.074.

Q: Which abundance fitness does the source give for KKPMSASALFVQDHRPQFLIENPKTSLEDATLQIEELWKTLSEAEKLKYEEKATKDLERYNSQMKR [E44A] here?
A: The abundance fitness was -0.077 ± 0.063.

Q: Which abundance fitness does the source give for KKPMSASALFVQDHRPQFLIENPKTSLEDATLQIEELWKTLSEGEKLKYEEKATKDLERYNSQMKR [E44G] here?
A: The abundance fitness was -0.064 ± 0.052.

Q: With KKPMSASALFVQDHRPQFLIENPKTSLEDASLQIEELWKTLSEEEKLKYEEKATKDLERYNSQMKR [T31S] as the variant, how does the abundance fitness read?
A: Its abundance fitness is -0.335 ± 0.26.

Q: For KKPMSASALFVQDHRPQFLIENPKTSLEDATLQIDELWKTLSEEEKLKYEEKATKDLERYNSQMKR [E35D], which abundance fitness is on record?
A: The abundance fitness was -0.86 ± 0.4.

Q: For KKPNSASALFVQDHRPQFLIENPKTSLEDATLQIEELWKTLSEEEKLKYEEKATKDLERYNSQMKR [M4N], which abundance fitness is on record?
A: The abundance fitness was -0.157 ± 0.47.

Q: Which abundance fitness does the source give for KKPHSASALFVQDHRPQFLIENPKTSLEDATLQIEELWKTLSEEEKLKYEEKATKDLERYNSQMKR [M4H] here?
A: Its abundance fitness is -0.044 ± 0.14.

Q: With KKPMSASALFVQDHRPQFLIENPKTSLEDATLQIEELWKTLSEEEKLKYEEKATKDLELYNSQMKR [R59L] as the variant, how does the abundance fitness read?
A: The abundance fitness was 0.001 ± 0.047.

Q: For KKPMSASALFVQDHRPQFLIENPKTSLEDATLDIEELWKTLSEEEKLKYEEKATKDLERYNSQMKR [Q33D], which abundance fitness is on record?
A: Its abundance fitness is -0.24 ± 0.38.

Q: Which abundance fitness does the source give for KKPMSASALFVQDHRPQFLIENPKTSLEDATLPIEELWKTLSEEEKLKYEEKATKDLERYNSQMKR [Q33P] here?
A: The abundance fitness was -0.579 ± 0.17.

Q: Which abundance fitness does the source give for KKPMSASALFVQDHRGQFLIENPKTSLEDATLQIEELWKTLSEEEKLKYEEKATKDLERYNSQMKR [P16G] here?
A: Its abundance fitness is -0.244 ± 0.068.

Q: With GKPMSASALFVQDHRPQFLIENPKTSLEDATLQIEELWKTLSEEEKLKYEEKATKDLERYNSQMKR [K1G] as the variant, how does the abundance fitness read?
A: The abundance fitness was -0.225 ± 0.11.

Q: With MKPMSASALFVQDHRPQFLIENPKTSLEDATLQIEELWKTLSEEEKLKYEEKATKDLERYNSQMKR [K1M] as the variant, how does the abundance fitness read?
A: Its abundance fitness is -0.057 ± 0.26.

Q: With KKPMSASALFVQDHRPQFLIENPKTSLEDATLQIEELWCTLSEEEKLKYEEKATKDLERYNSQMKR [K39C] as the variant, how does the abundance fitness read?
A: The abundance fitness was -0.156 ± 0.17.

Q: With KKPMSASALFVQDHRPQFLIENPKTSLEDATLQIEELWPTLSEEEKLKYEEKATKDLERYNSQMKR [K39P] as the variant, how does the abundance fitness read?
A: The abundance fitness was -0.252 ± 0.18.

Q: For KKPMSASALFVQDHRPQFLIENPKTSLEDATLQIEELWRTLSEEEKLKYEEKATKDLERYNSQMKR [K39R], which abundance fitness is on record?
A: Its abundance fitness is -0.285 ± 0.099.

Q: Which abundance fitness does the source give for KKPMSASALFVQDHRPQFLIENPKTSLEDATLQIEELWKTLSEEEKLKYENKATKDLERYNSQMKR [E51N] here?
A: Its abundance fitness is -0.062 ± 0.095.

Q: For KKPMSASALFVQDHRPQFLIENPKTSLEDATLQIEELWKTLSEEEKLKYEEKATKDLERYNSQMFR [K65F], which abundance fitness is on record?
A: The abundance fitness was -0.276 ± 0.22.

Q: With KKPMSASALFVQDHRPQFLIENPKTSLEDATLQIEELWKTLSEEEKLKYEEKATKDLERYNSQMQR [K65Q] as the variant, how does the abundance fitness read?
A: Its abundance fitness is 0.02 ± 0.11.

Q: With KKPMSASALFVQDHRPQFLIENPKTSLEDATLQIEELWKTLSEEEKLKYEEKATKDRERYNSQMKR [L57R] as the variant, how does the abundance fitness read?
A: The abundance fitness was -0.058 ± 0.062.

Q: Which abundance fitness does the source give for KKPMSASALFVQDHRPQFLIENPKTSLEDATLQIEELWKTLSEEEKLKYEEKATKDKERYNSQMKR [L57K] here?
A: The abundance fitness was -0.123 ± 0.088.

Q: With KKPMSASALFVQDHRPQFLIENPKTSLEDATLQIEELWKTLSEEEKLKYEEKATKSLERYNSQMKR [D56S] as the variant, how does the abundance fitness read?
A: Its abundance fitness is -0.035 ± 0.074.

Q: For KKPMSASALFVQDHRPQFLIENPKTSLEDATLQIEELWKTLSEEEKLKYEEKATKDLERMNSQMKR [Y60M], which abundance fitness is on record?
A: Its abundance fitness is -0.339 ± 0.15.

Q: With KKPMSASALFVQDHRPQFLIENPKTSLEDATLQIEELWKTLSEEEKLKYEEKATKDLERWNSQMKR [Y60W] as the variant, how does the abundance fitness read?
A: The abundance fitness was -0.117 ± 0.091.

— the Human Domainome abundance scans (Beltran et al. 2025)
